The values that follow come from PMC8795117.

In test [1] the target is BmdB (Thermoactinomyces vulgaris F-5595). Description: SEC; full-length BmdB and BmdC at 1–8 μM mixed (increasing BmdC, fixed BmdB), Superdex200 Increase 10/300, 50 mM Tris-HCl pH 7.5, 200 mM NaCl, 1 mM DTT. Background: In gel filtration, larger molecules generally elute earlier.
Test [2] deals with BmdC (Thermoactinomyces vulgaris F-5595). In words: SEC; size-exclusion chromatography of BmdC alone (Supplementary Fig. 2e).
For test [3], the target named is BmdB (Thermoactinomyces vulgaris F-5595).

For BmdC (enzyme), in test [1], the stoichiometry N (BmdB molecules per BmdC dimer) stood at 2. Further, the stoichiometry N (usually the number of molecules, sites or subunits per partner or assembly) in test [2] amounted to 2.
Consider BmdC_D225R (enzyme), for which the decrease in oxidation to bacillamide D in peptide synthesis assays in test [3] came out at 50%.
